Biological target: human PD-L1 on cells (human) (UniProt Q9NZQ7)
Assay: cell-based or functional assay

Sequence of human PD-L1 on cells (human) (Q9NZQ7 19-290): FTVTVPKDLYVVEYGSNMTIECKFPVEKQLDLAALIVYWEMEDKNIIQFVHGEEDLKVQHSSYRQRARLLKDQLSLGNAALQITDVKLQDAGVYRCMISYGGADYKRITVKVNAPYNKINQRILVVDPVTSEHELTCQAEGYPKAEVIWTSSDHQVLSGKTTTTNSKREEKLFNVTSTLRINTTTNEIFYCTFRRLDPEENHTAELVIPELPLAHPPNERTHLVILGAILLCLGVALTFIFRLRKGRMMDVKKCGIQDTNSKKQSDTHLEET

Substance: anti-PD-L1 antibody (MDX-1105)
- IFNγ secretion by CMV-specific T cells (ELISA), EC50: 0.6 nM

From US20140294898A1
